B2: pCaMKK1: CaMKK1_(67–480) D293A phosphorylated by PKA at all four sites (domain or fragment, human, UniProt Q8N5S9 67-480, looked up)
chain: SLSARKLSLQERPAGSYLEAQAGPYATGPASHISPRAWRRPTIESHHVAISDAEDCVQLNQYKLQSEIGKGAYGVVRLAYNESEDRHYAMKVLSKKKLLKQYGFPRRPPPRGSQAAQGGPAKQLLPLERVYQEIAILKKLDHVNVVKLIEVLDDPAEDNLYLVFDLLRKGPVMEVPCDKPFSEEQARLYLRDVILGLEYLHCQKIVHRDIKPSNLLLGDDGHVKIAAFGVSNQFEGNDAQLSSTAGTPAFMAPEAISDSGQSFSGKALDVWATGVTLYCFVYGKCPFIDDFILALHRKIKNEPVVFPEEPEISEELKDLILKMLDKNPETRIGVPDIKLHPWVTKNGEEPLPSEEEHCSVVEVTEEEVKNSVRLIPSWTTVILVKSMLRKRSFGNPFEPQARREERSMSAPGNL
modifications: phosphoserine at 74, phosphothreonine at 108, phosphoserine at 458, phosphoserine at 475 (PKA; stoichiometric by LC-MS)
notes: Same construct as m1 after PKA phosphorylation; also called phosphorylated CaMKK1; source: E. coli BL21 (DE3), purified, phosphorylated by PKA in vitro, SEC
B5: Human 14‐3‐3γ (residues 1–235 lacking the C‐terminal 12‐residues‐long flexible tail) (domain or fragment, UniProt P61981 1-235, looked up)
chain: MVDREQLVQKARLAEQAERYDDMAAAMKNVTELNEPLSNEERNLLSVAYKNVVGARRSSWRVISSIEQKTSADGNEKKIEMVRAYREKIEKELEAVCQDVLSLLDNYLIKNCSETQYESKVFYLKMKGDYYRYLAEVATGEKRATVVESSEKAYSEAHEISKEHMQPTHPIRLGLALNYSVFYYEIQNAPEQACHLAKTAFDDAIAELDTLNEDSYKDSTLIMQLLRDNLTLWTS
notes: human 14-3-3γ, residues 1-235, lacking the C-terminal 12 residues; Homodimer; also called 14-3-3γ dimer; source: expressed and purified as described previously (Obsilova et al., 2004)
B6: pCaMKK2: CaMKK2_(93–517) D330A phosphorylated by PKA at all four sites (domain or fragment, human, UniProt Q96RR4 93-517, looked up)
chain: HLSGRKLSLQERSQGGLAAGGSLDMNGRCICPSLPYSPVSSPQSSPRLPRRPTVESHHVSITGMQDCVQLNQYTLKDEIGKGSYGVVKLAYNENDNTYYAMKVLSKKKLIRQAGFPRRPPPRGTRPAPGGCIQPRGPIEQVYQEIAILKKLDHPNVVKLVEVLDDPNEDHLYMVFELVNQGPVMEVPTLKPLSEDQARFYFQDLIKGIEYLHYQKIIHRDIKPSNLLVGEDGHIKIAAFGVSNEFKGSDALLSNTVGTPAFMAPESLSETRKIFSGKALDVWAMGVTLYCFVFGQCPFMDERIMCLHSKIKSQALEFPDQPDIAEDLKDLITRMLDKNPESRIVVPEIKLHPWVTRHGAEPLPSEDENCTLVEVTEEEVENSVKHIPSLATVILVKTMIRKRSFGNPFEGSRREERSLSAPGNLL
modifications: phosphoserine at 100, phosphothreonine at 145, phosphoserine at 495, phosphoserine at 511 (PKA; stoichiometric by LC-MS)
notes: Same construct as m3 after PKA phosphorylation; also called phosphorylated CaMKK2; source: E. coli BL21 (DE3), purified, phosphorylated by PKA in vitro, SEC

The target of series [1] is T1, dansyl-labeled calmodulin (DANS-CaM), Ca2+-bound (rat, UniProt P0DP29 1-149, dansyl label (dansyl chloride; site not stated)).
T1 construct: rat calmodulin (CaM); The assay buffer held 1 mM CaCl2 (Ca2+/CaM); also called dansyl-Ca2+/CaM; source: prepared as described previously (Holakovska et al., 2011); labeled with dansyl chloride, SEC
The experiment in a line: fluorescence polarisation; 2 μM DANS-CaM titrated with CaMKK (30 μM and binary dilution series), 1 h incubation; 10 mM HEPES-NaOH pH 7.4, 150 mM NaCl, 1 mM CaCl2, 0.1% Tween 20, 0.1% BSA; one-site-binding model. The following applies: both partners purified. In general terms: Polarisation of emitted light reports the rotation of a fluorescent probe.

Series [2] addresses T1, dansyl-labeled calmodulin (DANS-CaM), …. The experiment in a line: fluorescence polarisation; as a1 but with 60 μM 14-3-3γ present: 2 μM DANS-CaM titrated with CaMKK (30 μM and binary dilution series), 1 h incubation; 10 mM HEPES-NaOH pH 7.4, 150 mM NaCl, 1 mM CaCl2, 0.1% Tween 20, 0.1% BSA; one-site-binding model. The following applies: both partners purified.
Series [3] has as its target B5. Nature of the series: AUC; sedimentation velocity of mixtures of 0.06–6 μM pCaMKK1 or pCaMKK2 with 1.2 μM 14-3-3γ; direct modeling with the Lamm equation, Langmuir binding model, one pCaMKK on a 14-3-3γ homodimer; apparent KD; 50 mM Tris–HCl pH 7.5, 150 mM NaCl, 1 mM TCEP; 20°C. The following applies: both partners purified.
The target in series [4] is T2, Rat calmodulin, Ca^2+-bound (Ca^2+/CaM) (rat, UniProt P0DP29 1-149).
T2 construct: rat calmodulin; Unlabelled CaM, used with 1 mM CaCl2 in the ultracentrifuge; source: prepared as described previously (Holakovska et al., 2011)
The experiment in a line: AUC; sedimentation velocity of CaMKK1 or CaMKK2 with Ca^2+/CaM (1:1 molar ratio); 50 mM Tris–HCl pH 7.5, 150 mM NaCl, 1 mM TCEP, 1 mM CaCl2; 20°C. The following applies: both partners purified.

Series [5] deals with the molecule itself. The experiment in a line: SEC-SAXS; in-line SEC-SAXS on Superdex 200 Increase 5/150 GL; complexes mixed at 1:2 molar ratio (pCaMKK:14-3-3γ); 50 mM Tris–HCl pH 7.5, 150 mM NaCl, 1 mM TCEP, 3% glycerol.
Series [6] deals with B2. Nature of the series: AUC; sedimentation velocity of mixtures of 0.06–6 μM pCaMKK1 or pCaMKK2 with 1.2 μM 14-3-3γ; direct modeling with the Lamm equation, Langmuir binding model, one pCaMKK on a 14-3-3γ homodimer; apparent KD; 50 mM Tris–HCl pH 7.5, 150 mM NaCl, 1 mM TCEP; 20°C. The settings on record: both partners purified.
Series [7] deals with B6. The series is described as above. The settings on record: both partners purified.
Series [8] deals with T3, Dansyl‐labeled rat calmodulin (DANS‐CaM), Ca^2+-bound (rat, UniProt P0DP29 1-149, dansyl label (dansyl chloride; site not stated)).
T3 construct: rat calmodulin, labeled with dansyl chloride; Assays in 1 mM CaCl2; also called dansyl-Ca^2+/CaM; DANS-labeled CaM; source: prepared as described previously (Holakovska et al., 2011), labeled by dansyl chloride, SEC
Nature of the series: fluorescence polarisation; 2 μM DANS-CaM titrated by 30 μM CaMKK proteins and their binary dilution series, with and without 60 μM 14-3-3γ; 10 mM HEPES–NaOH pH 7.4, 150 mM NaCl, 1 mM CaCl2, 0.1% Tween 20, 0.1% BSA; one-site-binding model. The settings on record: both partners purified.

Data on seven molecules can be found in paper PMC10588359, “14‐3‐3 protein inhibits CaMKK1 by blocking the kinase active site with its last two C‐terminal helices” (Protein Science : A Publication of the Protein Society, 2023).

B1: CaMKK1(67-480) D293A, unphosphorylated (domain or fragment)
chain: SLSARKLSLQERPAGSYLEAQAGPYATGPASHISPRAWRRPTIESHHVAISDAEDCVQLNQYKLQSEIGKGAYGVVRLAYNESEDRHYAMKVLSKKKLLKQYGFPRRPPPRGSQAAQGGPAKQLLPLERVYQEIAILKKLDHVNVVKLIEVLDDPAEDNLYLVFDLLRKGPVMEVPCDKPFSEEQARLYLRDVILGLEYLHCQKIVHRDIKPSNLLLGDDGHVKIAAFGVSNQFEGNDAQLSSTAGTPAFMAPEAISDSGQSFSGKALDVWATGVTLYCFVYGKCPFIDDFILALHRKIKNEPVVFPEEPEISEELKDLILKMLDKNPETRIGVPDIKLHPWVTKNGEEPLPSEEEHCSVVEVTEEEVKNSVRLIPSWTTVILVKSMLRKRSFGNPFEPQARREERSMSAPGNL
notes: source: E. coli BL21 (DE3), purified
B1: the Kd was determined as 600 ± 110 nM in series [1] and 630 ± 70 nM in series [2].
By stoichiometry N is commonly meant a count of units in the complex or per binding partner. In the case of B2, the “stoichiometry N” value in series [3] was 2 14-3-3γ protomers per pCaMKK.

B3: CaMKK1_(67–480) D293A, unphosphorylated (domain or fragment)
chain: SLSARKLSLQERPAGSYLEAQAGPYATGPASHISPRAWRRPTIESHHVAISDAEDCVQLNQYKLQSEIGKGAYGVVRLAYNESEDRHYAMKVLSKKKLLKQYGFPRRPPPRGSQAAQGGPAKQLLPLERVYQEIAILKKLDHVNVVKLIEVLDDPAEDNLYLVFDLLRKGPVMEVPCDKPFSEEQARLYLRDVILGLEYLHCQKIVHRDIKPSNLLLGDDGHVKIAAFGVSNQFEGNDAQLSSTAGTPAFMAPEAISDSGQSFSGKALDVWATGVTLYCFVYGKCPFIDDFILALHRKIKNEPVVFPEEPEISEELKDLILKMLDKNPETRIGVPDIKLHPWVTKNGEEPLPSEEEHCSVVEVTEEEVKNSVRLIPSWTTVILVKSMLRKRSFGNPFEPQARREERSMSAPGNL
notes: Cloned into pRSFDuet-1; purification as in Psenakova et al., 2018; also called Ca^2+/CaM-dependent protein kinase kinase 1; Not-P CaMKK1; source: E. coli BL21 (DE3), purified
With B3, the “stoichiometry N” value in series [4] came to 1.

B4: pCaMKK1: CaMKK1(67-480) D293A phosphorylated by PKA at four sites (domain or fragment)
chain: SLSARKLSLQERPAGSYLEAQAGPYATGPASHISPRAWRRPTIESHHVAISDAEDCVQLNQYKLQSEIGKGAYGVVRLAYNESEDRHYAMKVLSKKKLLKQYGFPRRPPPRGSQAAQGGPAKQLLPLERVYQEIAILKKLDHVNVVKLIEVLDDPAEDNLYLVFDLLRKGPVMEVPCDKPFSEEQARLYLRDVILGLEYLHCQKIVHRDIKPSNLLLGDDGHVKIAAFGVSNQFEGNDAQLSSTAGTPAFMAPEAISDSGQSFSGKALDVWATGVTLYCFVYGKCPFIDDFILALHRKIKNEPVVFPEEPEISEELKDLILKMLDKNPETRIGVPDIKLHPWVTKNGEEPLPSEEEHCSVVEVTEEEVKNSVRLIPSWTTVILVKSMLRKRSFGNPFEPQARREERSMSAPGNL
modifications: phosphoserine at 74, phosphothreonine at 108, phosphoserine at 458, phosphoserine at 475
notes: also called 4xPhosphorylated CaMKK1; source: E. coli BL21 (DE3), purified; phosphorylated with PKA, then SEC
In turn, B4 registered a Kd in series [1] of 2160 ± 300 nM.
For the molecule B5, the “stoichiometry N” value in series [5] amounted to 2. Besides, the Kd came to 21 ± 3 nM in series [6] and 60 ± 15 nM in series [7].
Turning to B6, the binding result in series [8] is “binds”. Also, in series [3], the “stoichiometry N” value is 2 14-3-3γ protomers per pCaMKK.

B7: CaMKK2_(93–517) D330A, unphosphorylated (domain or fragment)
chain: HLSGRKLSLQERSQGGLAAGGSLDMNGRCICPSLPYSPVSSPQSSPRLPRRPTVESHHVSITGMQDCVQLNQYTLKDEIGKGSYGVVKLAYNENDNTYYAMKVLSKKKLIRQAGFPRRPPPRGTRPAPGGCIQPRGPIEQVYQEIAILKKLDHPNVVKLVEVLDDPNEDHLYMVFELVNQGPVMEVPTLKPLSEDQARFYFQDLIKGIEYLHYQKIIHRDIKPSNLLVGEDGHIKIAAFGVSNEFKGSDALLSNTVGTPAFMAPESLSETRKIFSGKALDVWAMGVTLYCFVFGQCPFMDERIMCLHSKIKSQALEFPDQPDIAEDLKDLITRMLDKNPESRIVVPEIKLHPWVTRHGAEPLPSEDENCTLVEVTEEEVENSVKHIPSLATVILVKTMIRKRSFGNPFEGSRREERSLSAPGNLL
notes: also called Ca^2+/CaM-dependent protein kinase kinase 2; Not-P CaMKK2; source: E. coli BL21 (DE3), purified
For B7, in series [4], the “stoichiometry N” value came out at 1.
